# Experimental data reported in the Immune Epitope Database (IEDB).
# pIC50, pKd: −log10 of the molar value.
# Experiments:
# HLA-B*18:01 = assay: IEDB peptide-MHC binding, purified MHC/direct/fluorescence; filed as Kd, often an IC50 or EC50 that approximates it; ≥ and ≤ were set here for values at or beyond the usual limits of such assays
# HLA-A*31:01 = assay: as above
# HLA-B*48:01 = assay: as above
# HLA-B*57:01 = assay: as above
# HLA-B*58:01 [1] = assay: as above
# HLA-A*03:01 = assay: as above
# HLA-B*27:05 = assay: as above
# HLA-A*01:01 = assay: as above
# HLA-B*46:01 = assay: as above
# HLA-A*69:01 = assay: as above
# HLA-B*39:01 = assay: as above
# HLA-A*11:01 [2] = assay: as above
# HLA-A*02:01 [3] = assay: as above
# HLA-B*44:02 = assay: as above
# HLA-B*07:02 = assay: as above
# HLA-A*29:02 = assay: as above
# HLA-B*15:01 [4] = assay: as above
# HLA-A*02:03 [5] = assay: as above; details: source organism: Mycobacterium tuberculosis str. Haarlem
# HLA-A*11:01 [6] = assay: IEDB peptide-MHC binding, purified MHC/competitive/fluorescence; ≥ and ≤ were set here for values at or beyond the usual limits of such assays
# HLA-B*40:01 = assay: IEDB peptide-MHC binding, purified MHC/direct/fluorescence; filed as Kd, often an IC50 or EC50 that approximates it; ≥ and ≤ were set here for values at or beyond the usual limits of such assays
# HLA-A*24:02 = assay: IEDB peptide-MHC binding, purified MHC/competitive/fluorescence; ≥ and ≤ were set here for values at or beyond the usual limits of such assays
# HLA-B*08:01 [7] = assay: as above
# HLA-A*02:01 [8] = assay: as above
# HLA-B*58:01 [9] = assay: IEDB peptide-MHC binding, purified MHC/competitive/radioactivity; filed as Kd, often an IC50 or EC50 that approximates it; ≥ and ≤ were set here for values at or beyond the usual limits of such assays
# HLA-B*53:01 = assay: as above
# HLA-B*51:01 = assay: IEDB peptide-MHC binding, purified MHC/direct/fluorescence; filed as Kd, often an IC50 or EC50 that approximates it; ≥ and ≤ were set here for values at or beyond the usual limits of such assays; details: source organism: Mycobacterium tuberculosis
# HLA-B*15:17 = assay: as above
# HLA-B*15:03 = assay: IEDB peptide-MHC binding, purified MHC/competitive/radioactivity; filed as Kd, often an IC50 or EC50 that approximates it; ≥ and ≤ were set here for values at or beyond the usual limits of such assays; details: source organism: Vaccinia virus WR
# HLA-B*08:01 [10] = assay: as above; details: source organism: Vaccinia virus WR
# HLA-A*32:01 = assay: as above; details: source organism: Vaccinia virus WR
# HLA-A*30:01 = assay: as above; details: source organism: Vaccinia virus WR
# HLA-B*15:01 [11] = assay: as above; details: source organism: Vaccinia virus WR
# HLA-A*02:01 [12] = assay: IEDB peptide-MHC binding, purified MHC/competitive/fluorescence; filed as Kd, often an IC50 or EC50 that approximates it; ≥ and ≤ were set here for values at or beyond the usual limits of such assays; details: source organism: Shigella boydii CDC 3083-94
# HLA-B*15:01 [13] = assay: as above
# HLA-A*26:01 = assay: IEDB peptide-MHC binding, purified MHC/direct/fluorescence; filed as Kd, often an IC50 or EC50 that approximates it; ≥ and ≤ were set here for values at or beyond the usual limits of such assays; details: source organism: Salmonella enterica subsp. enterica serovar Typhimurium
# HLA-A*02:17 = assay: IEDB peptide-MHC binding, purified MHC/competitive/radioactivity; filed as Kd, often an IC50 or EC50 that approximates it; ≥ and ≤ were set here for values at or beyond the usual limits of such assays; details: source organism: Dengue virus 2 Jamaica/1409/1983
# HLA-A*02:06 = assay: as above; details: source organism: Dengue virus 2 Jamaica/1409/1983
# HLA-A*02:03 [14] = assay: as above; details: source organism: Dengue virus 2 Jamaica/1409/1983
# [15] = source organism: Mycobacterium avium 104
# [16] = source organism: West Nile virus
# [17] = source organism: Zaire ebolavirus
# [18] = source organism: Vaccinia virus WR
# [19] = source organism: Yellow fever virus
# [20] = source organism: Dengue virus 1 Brazil/97-11/1997
# [21] = source organism: Mycobacterium tuberculosis
# [22] = source organism: Salmonella enterica subsp. enterica serovar Typhimurium
# [23] = source organism: Lake Victoria marburgvirus - Popp
# [24] = source organism: Vaccinia virus
# [25] = source organism: Dengue virus 4 Philippines/H241/1956
# [26] = source organism: Vibrio cholerae
sequence,measurement,setting,value
EHVQGDIDL,pKd,HLA-B*18:01; [15],≤ 4.70
same,pKd,HLA-A*31:01; [15],≤ 4.70
same,pKd,HLA-B*48:01; [15],≤ 4.70
same,pKd,HLA-B*57:01; [15],≤ 4.70
same,pKd,HLA-B*58:01 [1]; [15],≤ 4.70
same,pKd,HLA-A*03:01; [15],≤ 4.70
same,pKd,HLA-B*27:05; [15],≤ 4.70
same,pKd,HLA-A*01:01; [15],≤ 4.70
same,pKd,HLA-B*46:01; [15],≤ 4.70
same,pKd,HLA-A*69:01; [15],≤ 4.70
same,pKd,HLA-B*39:01; [15],6.65
same,pKd,HLA-A*11:01 [2]; [15],≤ 4.70
same,pKd,HLA-A*02:01 [3]; [15],≤ 4.70
same,pKd,HLA-B*44:02; [15],≤ 4.70
same,pKd,HLA-B*07:02; [15],≤ 4.70
same,pKd,HLA-A*29:02; [15],≤ 4.70
same,pKd,HLA-B*15:01 [4]; [15],≤ 4.70
AMWDWSKSV,pKd,HLA-A*02:03 [5],≥ 9.00
ENKKNLSEQ,pIC50,HLA-A*11:01 [6]; source organism: Sudan ebolavirus,≤ 4.12
YCPGTTVTL,pKd,HLA-B*18:01; [16],≤ 4.70
same,pKd,HLA-A*31:01; [16],≤ 4.70
same,pKd,HLA-B*48:01; [16],≤ 4.70
same,pKd,HLA-B*57:01; [16],≤ 4.70
same,pKd,HLA-A*03:01; [16],≤ 4.70
same,pKd,HLA-B*27:05; [16],≤ 4.70
same,pKd,HLA-A*01:01; [16],≤ 4.70
same,pKd,HLA-B*46:01; [16],≤ 4.70
same,pKd,HLA-B*40:01; [16],≤ 4.70
same,pKd,HLA-A*69:01; [16],≤ 4.70
same,pKd,HLA-B*39:01; [16],5.88
same,pKd,HLA-A*11:01 [2]; [16],≤ 4.70
same,pKd,HLA-B*44:02; [16],≤ 4.70
same,pKd,HLA-B*07:02; [16],≤ 4.70
same,pKd,HLA-A*29:02; [16],≤ 4.70
same,pKd,HLA-B*15:01 [4]; [16],≤ 4.70
DMDYHKILT,pIC50,HLA-A*24:02; [17],5.39
same,pIC50,HLA-B*08:01 [7]; [17],≤ 3.70
same,pIC50,HLA-A*02:01 [8]; [17],≤ 3.56
SAGESSILR,pIC50,HLA-A*11:01 [6]; source organism: Vaccinia virus Copenhagen,5.85
ASAIVLEFF,pKd,HLA-B*58:01 [9]; source organism: Dengue virus 3 Martinique/1243/1999,7.55
FYTRVLKPS,pIC50,HLA-A*24:02; [18],5.15
same,pIC50,HLA-A*11:01 [6]; [18],≤ 3.75
same,pIC50,HLA-A*02:01 [8]; [18],≤ 3.96
VNRWLFRHL,pKd,HLA-B*18:01; [19],≤ 4.70
same,pKd,HLA-A*31:01; [19],≤ 4.70
same,pKd,HLA-B*48:01; [19],≤ 4.70
same,pKd,HLA-B*57:01; [19],≤ 4.70
same,pKd,HLA-B*58:01 [1]; [19],≤ 4.70
same,pKd,HLA-A*03:01; [19],≤ 4.70
same,pKd,HLA-B*27:05; [19],≤ 4.70
same,pKd,HLA-A*01:01; [19],≤ 4.70
same,pKd,HLA-B*46:01; [19],≤ 4.70
same,pKd,HLA-B*40:01; [19],≤ 4.70
same,pKd,HLA-A*69:01; [19],≤ 4.70
same,pKd,HLA-A*02:01 [3]; [19],≤ 4.70
same,pKd,HLA-B*44:02; [19],≤ 4.70
same,pKd,HLA-B*07:02; [19],≤ 4.70
same,pKd,HLA-A*29:02; [19],≤ 4.70
same,pKd,HLA-B*15:01 [4]; [19],≤ 4.70
QGIVRQRVI,pIC50,HLA-A*24:02; [17],4.94
same,pIC50,HLA-B*08:01 [7]; [17],5.13
same,pIC50,HLA-A*11:01 [6]; [17],≤ 3.80
same,pIC50,HLA-A*02:01 [8]; [17],≤ 3.40
FVTNEVHTW,pKd,HLA-B*58:01 [9]; [20],7.52
same,pKd,HLA-B*53:01; [20],7.21
GPRGRHVVL,pKd,HLA-B*18:01; [21],≤ 4.70
same,pKd,HLA-A*31:01; [21],≤ 4.70
same,pKd,HLA-B*48:01; [21],≤ 4.70
same,pKd,HLA-B*57:01; [21],≤ 4.70
same,pKd,HLA-B*58:01 [1]; [21],≤ 4.70
same,pKd,HLA-A*03:01; [21],≤ 4.70
same,pKd,HLA-B*27:05; [21],≤ 4.70
same,pKd,HLA-A*01:01; [21],≤ 4.70
same,pKd,HLA-B*46:01; [21],≤ 4.70
same,pKd,HLA-B*51:01,≤ 4.70
same,pKd,HLA-B*40:01; [21],≤ 4.70
same,pKd,HLA-A*69:01; [21],≤ 4.70
same,pKd,HLA-B*39:01; source organism: Mycobacterium tuberculosis str. Haarlem,≤ 4.70
same,pKd,HLA-B*15:17; [21],≤ 4.70
same,pKd,HLA-A*11:01 [2]; [21],≤ 4.70
same,pKd,HLA-A*02:01 [3]; [21],≤ 4.70
same,pKd,HLA-B*15:01 [4]; [21],≤ 4.70
KMTRVFNKF,pKd,HLA-B*15:03,9.37
same,pKd,HLA-B*08:01 [10],4.97
same,pKd,HLA-A*32:01,4.97
same,pKd,HLA-A*30:01,4.82
same,pKd,HLA-B*15:01 [11],5.12
FTFEWNGRI,pKd,HLA-A*02:01 [12],7.84
same,pKd,HLA-B*15:01 [13]; source organism: Shigella boydii CDC 3083-94,≤ 4.70
KIRNRIERL,pKd,HLA-B*18:01; [16],≤ 4.70
same,pKd,HLA-B*48:01; [16],≤ 4.70
same,pKd,HLA-B*57:01; [16],≤ 4.70
same,pKd,HLA-A*03:01; [16],≤ 4.70
same,pKd,HLA-B*27:05; [16],≤ 4.70
same,pKd,HLA-A*01:01; [16],≤ 4.70
same,pKd,HLA-B*46:01; [16],≤ 4.70
same,pKd,HLA-B*40:01; [16],≤ 4.70
same,pKd,HLA-A*69:01; [16],≤ 4.70
same,pKd,HLA-A*11:01 [2]; [16],≤ 4.70
same,pKd,HLA-B*44:02; [16],≤ 4.70
same,pKd,HLA-A*29:02; [16],≤ 4.70
KSNGAQQWL,pKd,HLA-A*26:01,≤ 4.70
same,pKd,HLA-B*57:01; [22],5.66
same,pKd,HLA-B*58:01 [1]; [22],6.45
same,pKd,HLA-A*03:01; [22],≤ 4.70
same,pKd,HLA-B*27:05; [22],≤ 4.70
same,pKd,HLA-A*01:01; [22],≤ 4.70
same,pKd,HLA-B*15:17; [22],8.22
same,pKd,HLA-A*02:01 [3]; [22],≤ 4.70
same,pKd,HLA-B*07:02; [22],≤ 4.70
same,pKd,HLA-B*15:01 [4]; [22],≤ 4.70
ITDITSPLW,pKd,HLA-B*57:01; [23],7.19
same,pKd,HLA-B*58:01 [1]; [23],8.52
same,pKd,HLA-B*15:17; [23],≥ 9.00
AADEPPLVR,pIC50,HLA-A*11:01 [6]; [24],≤ 3.85
LLLTLLATV,pKd,HLA-A*02:17,6.80
same,pKd,HLA-A*02:06,9.00
same,pKd,HLA-A*02:03 [14],8.81
VLQSAANMY,pKd,HLA-B*15:01 [13]; source organism: Bacillus anthracis str. A0488,7.17
TAAVLLLVTH,pKd,HLA-B*58:01 [9]; source organism: Dengue virus 3 Singapore/8120/1995,6.52
WVAEIQPQW,pKd,HLA-B*58:01 [9]; [25],7.24
same,pKd,HLA-B*53:01; [25],8.19
QMEQWGCPW,pKd,HLA-B*57:01; [26],5.27
same,pKd,HLA-B*58:01 [1]; [26],5.97
same,pKd,HLA-B*15:17; [26],6.83
GTSGSPIVDK,pIC50,HLA-A*11:01 [6]; [16],6.67
WASVKKDLIS,pKd,HLA-B*58:01 [9]; [20],7.09
FRAFRNLNV,pIC50,HLA-B*08:01 [7]; [24],5.21
same,pIC50,HLA-A*02:01 [8]; [24],≤ 4.05
